Target: protein kinase CK2 catalytic subunit α (human) (UniProt P68400)
Sequence (P68400 whole entry): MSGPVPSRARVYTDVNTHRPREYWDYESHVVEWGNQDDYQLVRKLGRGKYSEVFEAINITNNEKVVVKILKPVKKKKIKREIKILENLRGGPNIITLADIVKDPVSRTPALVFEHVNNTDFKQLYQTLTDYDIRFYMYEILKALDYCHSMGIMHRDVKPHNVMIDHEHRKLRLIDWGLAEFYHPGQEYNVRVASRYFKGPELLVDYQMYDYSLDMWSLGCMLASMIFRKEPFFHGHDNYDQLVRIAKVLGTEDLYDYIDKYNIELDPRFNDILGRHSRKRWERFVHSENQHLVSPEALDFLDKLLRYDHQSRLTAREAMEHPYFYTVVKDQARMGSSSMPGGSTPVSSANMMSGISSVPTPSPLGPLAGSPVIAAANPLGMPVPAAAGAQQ

Sequence of β-peptide(181–203) (P67870 181-203): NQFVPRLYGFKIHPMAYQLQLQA

β-peptide(181–203) (from UniProt P67870 181-203)
Kd: 8.45 µM

Source: article PMC3026963
